Target: T1, His-MAD1 (recombinant, not phosphorylated by ULK1) (human, UniProt Q9Y6D9 1-718)
T1 sequence: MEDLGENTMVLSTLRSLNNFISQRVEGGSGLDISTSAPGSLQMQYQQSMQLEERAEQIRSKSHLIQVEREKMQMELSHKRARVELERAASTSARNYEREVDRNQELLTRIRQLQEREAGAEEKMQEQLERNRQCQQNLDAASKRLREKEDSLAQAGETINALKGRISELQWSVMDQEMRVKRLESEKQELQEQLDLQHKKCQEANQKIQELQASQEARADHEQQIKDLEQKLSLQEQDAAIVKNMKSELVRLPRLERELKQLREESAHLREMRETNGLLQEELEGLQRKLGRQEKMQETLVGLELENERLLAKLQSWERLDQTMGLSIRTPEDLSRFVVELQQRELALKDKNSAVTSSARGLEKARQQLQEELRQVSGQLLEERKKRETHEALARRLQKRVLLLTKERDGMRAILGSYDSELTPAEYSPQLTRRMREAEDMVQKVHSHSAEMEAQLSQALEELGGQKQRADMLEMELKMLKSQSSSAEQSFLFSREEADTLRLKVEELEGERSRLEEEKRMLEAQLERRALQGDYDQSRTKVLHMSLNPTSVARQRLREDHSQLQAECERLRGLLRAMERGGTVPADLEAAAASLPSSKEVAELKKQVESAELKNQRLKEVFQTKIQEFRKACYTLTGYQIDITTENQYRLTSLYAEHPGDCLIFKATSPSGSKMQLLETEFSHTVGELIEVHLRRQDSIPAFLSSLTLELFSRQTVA
Assay: pull-down

binding result: binds
B1: human FLAG-BUB1-(437-509), phosphorylated in vitro (domain or fragment)
chain: SFHTTPNTSLGMVQATPSKVQPSPTVHTKEALGFIMNMFQAPTLPDISDDKDEWQSLDQNEDAFEAQFQKNVR

Reference: paper PMC6736072 (Nucleic Acids Research, 2019)
